The numbers were not newly measured in publication PMC7699679, which cites them from elsewhere.

Data set [1] addresses CXCR2 (Homo sapiens) (UniProt P25025).
Data set [2] has as its target CXCR1 (Homo sapiens) (UniProt P25024).
Data set [3] has as its target CCR2 (Homo sapiens) (UniProt P41597).
For data set [4], the target named is C5aR (Homo sapiens) (UniProt P21730).
Sequence of UniProt P21730 (P21730 whole entry): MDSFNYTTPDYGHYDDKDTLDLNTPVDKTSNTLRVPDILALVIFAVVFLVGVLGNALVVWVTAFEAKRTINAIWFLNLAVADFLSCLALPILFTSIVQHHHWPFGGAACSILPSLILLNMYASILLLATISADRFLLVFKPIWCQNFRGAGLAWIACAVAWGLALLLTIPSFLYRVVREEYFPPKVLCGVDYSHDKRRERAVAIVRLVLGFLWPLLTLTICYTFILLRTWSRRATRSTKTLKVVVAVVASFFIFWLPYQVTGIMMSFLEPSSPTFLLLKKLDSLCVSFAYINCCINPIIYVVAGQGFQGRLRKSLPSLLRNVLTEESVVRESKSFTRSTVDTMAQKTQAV

Sequence of UniProt P25024 (P25024 whole entry): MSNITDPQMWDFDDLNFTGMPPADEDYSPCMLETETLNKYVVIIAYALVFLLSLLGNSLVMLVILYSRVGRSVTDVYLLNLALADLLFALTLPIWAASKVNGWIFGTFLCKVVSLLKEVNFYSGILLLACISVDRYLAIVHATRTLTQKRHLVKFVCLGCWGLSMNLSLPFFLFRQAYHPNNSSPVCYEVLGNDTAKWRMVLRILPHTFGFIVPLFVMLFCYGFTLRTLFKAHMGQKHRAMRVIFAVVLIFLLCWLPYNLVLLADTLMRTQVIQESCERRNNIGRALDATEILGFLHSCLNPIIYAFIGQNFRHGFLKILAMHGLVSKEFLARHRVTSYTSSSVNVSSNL
Sequence of UniProt P25025 (P25025 whole entry): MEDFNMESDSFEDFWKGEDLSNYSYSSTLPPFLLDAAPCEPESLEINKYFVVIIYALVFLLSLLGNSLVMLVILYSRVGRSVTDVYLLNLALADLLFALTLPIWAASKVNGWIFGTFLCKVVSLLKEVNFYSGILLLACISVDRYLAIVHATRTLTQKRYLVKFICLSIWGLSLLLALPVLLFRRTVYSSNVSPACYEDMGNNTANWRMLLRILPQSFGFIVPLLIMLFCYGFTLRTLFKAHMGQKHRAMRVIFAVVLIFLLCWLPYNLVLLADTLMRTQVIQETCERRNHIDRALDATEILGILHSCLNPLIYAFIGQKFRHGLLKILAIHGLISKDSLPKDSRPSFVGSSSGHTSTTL
Sequence of UniProt P41597 (P41597 whole entry): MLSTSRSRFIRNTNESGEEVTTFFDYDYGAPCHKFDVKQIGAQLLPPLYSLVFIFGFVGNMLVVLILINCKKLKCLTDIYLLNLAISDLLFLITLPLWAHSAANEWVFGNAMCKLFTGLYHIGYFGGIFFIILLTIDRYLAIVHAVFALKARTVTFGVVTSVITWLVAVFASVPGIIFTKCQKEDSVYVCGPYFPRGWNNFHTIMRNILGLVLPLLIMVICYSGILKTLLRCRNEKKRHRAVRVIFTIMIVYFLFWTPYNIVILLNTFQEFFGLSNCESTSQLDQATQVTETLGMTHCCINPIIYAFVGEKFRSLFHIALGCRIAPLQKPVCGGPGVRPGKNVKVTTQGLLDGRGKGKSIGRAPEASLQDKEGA

Usually Kd stands for the free concentration of one partner at which half of the binding sites on the other are occupied at equilibrium, for simple one-to-one binding. HlgA (from UniProt Q5HDD6): the Kd is 27.2 nM in data set [1], 5.69 nM in data set [2] and 3.51 nM in data set [3].

In the case of HlgC (from UniProt Q07227), the Kd in data set [4] is 5.64 nM.
